Article PMC3485042

Molecular target: IhfAB (integration host factor) (UniProt P0A6X7+P0A6Y1)
Test: DNase I footprinting
Conditions: 25 mM Tris-HCl pH 7.5, 50 mM KCl, 6.25 mM MgCl2, 10% glycerol, 1 mM DTT, 30 min room temperature; then 2.5 mM CaCl2 and 5 mM MgCl2 added for DNase I (1 min)

Chain of UniProt P0A6X7 (P0A6X7 whole entry, chain 1 of 2): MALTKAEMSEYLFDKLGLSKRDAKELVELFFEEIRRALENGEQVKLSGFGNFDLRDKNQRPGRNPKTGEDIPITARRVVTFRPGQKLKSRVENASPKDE
Chain of UniProt P0A6X7 (P0A6Y1 whole entry, chain 2 of 2): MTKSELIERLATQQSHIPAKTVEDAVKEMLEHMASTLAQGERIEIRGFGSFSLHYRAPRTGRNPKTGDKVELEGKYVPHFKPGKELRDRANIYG

TCTGGTTTGGTTTTGTTTTGCGGGTTAAAAGATCGTTTAAATCAATATTTACAACATAAAAAACTAAATTTAACTTATTGCGTGAAGAGTATTTCCGGGCCGGAAGCATATATCCAGGGGCCCGACAGAAGGGGGAAACAT (double strand) [papB promoter region (141 bp PCR product)]
binding: binds
